# B1: human SLC1A5 (ASCT2), endogenous in HeLa cells (natural protein, human (endogenous in HeLa), UniProt Q15758 1-541, looked up)
# chain: MVADPPRDSKGLAAAEPTANGGLALASIEDQGAAAGGYCGSRDQVRRCLRANLLVLLTVVAVVAGVALGLGVSGAGGALALGPERLSAFVFPGELLLRLLRMIILPLVVCSLIGGAASLDPGALGRLGAWALLFFLVTTLLASALGVGLALALQPGAASAAINASVGAAGSAENAPSKEVLDSFLDLARNIFPSNLVSAAFRSYSTTYEERNITGTRVKVPVGQEVEGMNILGLVVFAIVFGVALRKLGPEGELLIRFFNSFNEATMVLVSWIMWYAPVGIMFLVAGKIVEMEDVGLLFARLGKYILCCLLGHAIHGLLVLPLIYFLFTRKNPYRFLWGIVTPLATAFGTSSSSATLPLMMKCVEENNGVAKHISRFILPIGATVNMDGAALFQCVAAVFIAQLSQQSLDFVKIITILVTATASSVGAAGIPAGGVLTLAIILEAVNLPVDHISLILAVDWLVDRSCTVLNVEGDALGAGLLQNYVDRTESRSTEPELIQVKSELPLDPLPVPTEEGNPLLKHYRGPAGDATVASEKESVM
# notes: ASCT2 (SLC1A5), sodium-dependent neutral amino acid antiporter, endogenous in HeLa cells; Detected with anti-hASCT2 (rabbit, Millipore) after formaldehyde cross-linking of intact cells; also called hASCT2; source: endogenous, intact HeLa cells (cross-linked in the cells, then total lysate)
# B2: recombinant hASCT2-6His WT (natural protein, human)
# chain: B1 chain
# notes: human ASCT2 (SLC1A5), wild type, construct pPICZB-ASCT2-6His; no cleavage of the tag is described; In the cross-linking the protein was detected with anti-hASCT2; also called purified WT hASCT2; SLC1A5; source: P. pastoris X-33 (pPICZB-ASCT2-6His), solubilised in C12E8, purified (Ni-NTA, PD-10)
# Columns and labels:
# [1] = biological target: the molecule itself; experiment: cross-linking; intact HeLa cells treated with 0.75% formaldehyde for 10 min at room temperature, stopped with 125 mM glycine; 50 ug total lysate on 8% SDS-PAGE, immunoblot with anti-hASCT2
# [2] = biological target: the molecule itself; experiment: cross-linking; purified WT hASCT2 in detergent, without or with 0.75 mg CHEMS, 1 or 4% formaldehyde in 20 mM Tris HCl pH 9.0 for 2 min at 23°C, stopped with 1.25 M glycine; 8% SDS-PAGE, immunoblot with anti-hASCT2
Protein,stoichiometry N [1],stoichiometry N [2]
B1,3,
B2,,3

# — PMC6819821, “Interaction of Cholesterol With the Human SLC1A5 (ASCT2): Insights Into Structure/Function Relationships” (Frontiers in Molecular Biosciences, 2019)
